Consider 2 substances from patent US20130058943A1.

Assay [1] concerns the target recombinant human TNF (human) (UniProt P01375). Nature of the assay: sandwich ELISA, rhTNF 250 pg/ml captured by plate-bound antibody. On the technique in general: An ELISA detects its analyte on a solid surface through an enzyme-linked reagent.
Assay [2] has as its target recombinant human IL-6 (human) (UniProt P05231). Nature of the assay: sandwich ELISA, rhIL-6 300 pg/ml captured by plate-bound antibody.
In assay [3] the target is recombinant human TNF (human) (UniProt P01375). Description: anti-TNF ELISA, AU/mg of final lot over defatted colostrum.
For assay [4] the target is unchanged. Description: anti-TNF ELISA, protein by BCA; first of two lots.
Assay [5] has the same target. Nature of the assay: table head: EC50 in TNF ELISA; the text that introduces the table speaks of the L929 neutralization assay.
Assay [6] has as its target recombinant canine TNF (canine) (UniProt P51742). Description: cell-based or functional assay.
Assay [7] has as its target recombinant human TNF (human) (UniProt P01375). Nature of the assay: cell-based or functional assay.
For assay [8], the target named is recombinant murine TNF (murine) (UniProt P06804). Nature of the assay: cell-based or functional assay.
Assay [9] deals with recombinant cynomolgus monkey TNF (cynomolgus monkey) (UniProt P79337). Description: cell-based or functional assay.
The target in assay [10] is transmembrane TNF on stimulated human PBMC (human) (UniProt P01375). Description: cell-based or functional assay.
Assay [11] has as its target recombinant rhesus macaque TNF (rhesus macaque) (UniProt P48094). Nature of the assay: cell-based or functional assay.
Assay [12] deals with recombinant bovine TNF (bovine) (UniProt Q06599). Nature of the assay: cell-based or functional assay.
Assay [13] deals with recombinant rat TNF (rat) (UniProt P16599). Description: cell-based or functional assay.
Assay [14] deals with recombinant human TNF (human) (UniProt P01375). Nature of the assay: anti-TNF ELISA, protein by BCA; second of two lots.

UniProt P05231, sequence (P05231 30-212 limits assumed): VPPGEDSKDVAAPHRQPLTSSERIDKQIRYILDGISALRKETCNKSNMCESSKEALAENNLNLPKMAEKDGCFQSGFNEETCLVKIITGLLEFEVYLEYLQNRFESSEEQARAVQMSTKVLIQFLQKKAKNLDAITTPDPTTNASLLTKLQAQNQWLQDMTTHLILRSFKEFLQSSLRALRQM
UniProt P16599, sequence (P16599 whole entry, form in doubt): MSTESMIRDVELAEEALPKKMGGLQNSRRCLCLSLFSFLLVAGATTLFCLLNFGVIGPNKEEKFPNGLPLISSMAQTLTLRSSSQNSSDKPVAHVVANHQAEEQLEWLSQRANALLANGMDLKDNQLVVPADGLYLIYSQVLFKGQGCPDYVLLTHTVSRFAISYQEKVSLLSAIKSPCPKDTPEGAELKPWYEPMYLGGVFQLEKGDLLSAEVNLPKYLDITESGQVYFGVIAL
UniProt P51742, sequence (P51742 whole entry, form in doubt): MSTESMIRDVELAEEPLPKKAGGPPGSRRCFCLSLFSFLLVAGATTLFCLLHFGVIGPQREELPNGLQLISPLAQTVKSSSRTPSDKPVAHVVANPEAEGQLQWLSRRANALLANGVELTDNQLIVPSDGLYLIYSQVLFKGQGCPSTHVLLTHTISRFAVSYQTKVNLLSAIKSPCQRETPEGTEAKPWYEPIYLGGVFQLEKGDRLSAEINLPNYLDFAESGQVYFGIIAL
UniProt P48094, sequence (P48094 whole entry, form in doubt): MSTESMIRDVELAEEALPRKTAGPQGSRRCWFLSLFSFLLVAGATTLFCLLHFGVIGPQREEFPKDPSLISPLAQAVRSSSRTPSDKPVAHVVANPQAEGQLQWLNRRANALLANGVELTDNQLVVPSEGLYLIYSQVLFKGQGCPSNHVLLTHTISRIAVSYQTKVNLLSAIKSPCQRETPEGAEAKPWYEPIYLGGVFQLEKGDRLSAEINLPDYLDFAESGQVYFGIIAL
UniProt P79337, sequence (P79337 whole entry, form in doubt): as the sequence (P48094 whole entry, form in doubt) above, with R8Q, T45A, L113V counted along it
UniProt P06804, sequence (P06804 whole entry, form in doubt): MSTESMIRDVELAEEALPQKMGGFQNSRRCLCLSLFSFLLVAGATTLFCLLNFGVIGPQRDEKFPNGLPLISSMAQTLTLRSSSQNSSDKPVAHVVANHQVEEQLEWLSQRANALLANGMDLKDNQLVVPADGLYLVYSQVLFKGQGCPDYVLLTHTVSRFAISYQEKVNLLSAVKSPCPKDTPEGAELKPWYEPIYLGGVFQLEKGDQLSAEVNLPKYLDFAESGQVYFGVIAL
UniProt Q06599, sequence (Q06599 whole entry, form in doubt): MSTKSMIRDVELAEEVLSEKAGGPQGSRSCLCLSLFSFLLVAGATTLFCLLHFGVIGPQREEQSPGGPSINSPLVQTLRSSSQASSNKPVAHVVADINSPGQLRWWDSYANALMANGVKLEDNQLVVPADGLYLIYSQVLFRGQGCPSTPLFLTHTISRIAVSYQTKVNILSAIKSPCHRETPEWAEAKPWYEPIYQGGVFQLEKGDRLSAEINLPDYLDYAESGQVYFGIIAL

Control Bovine Ig (antibody): the Absorbance 450 nm (absorbance at 450 nm) is -0.01 in assay [1] and 0.01 in [2].
“AVX-470, bovine colostrum-derived polyclonal anti-hTNF antibody”: the Absorbance 450 nm (absorbance at 450 nm) in assay [1] was 0.76; in assay [2], 0.03. In addition, the fold increase of potency against defatted colostrum in assay [3] was 1.9 fold. Besides, the anti-TNF activity by ELISA per mg protein (AU/mg protein) in [4] was found to be 634; in assay [14], 526. The EC50 (commonly the midpoint of the concentration-response curve) in assay [5] was determined as 15.9 µg/mL. The EC50, L929 neutralization assay is 250 µg/mL in [6]; 28 µg/mL in assay [7]; above 2000 µg/mL in assay [8]; 48 µg/mL in assay [9]; 32 µg/mL in [11]; above 2000 µg/mL in assay [12]. In addition, in assay [13], the EC50, L929 neutralization assay was above 2000 µg/mL. In [10], this substance had a Late apoptotic cells, annexin V / propidium iodide FACS of stimulated human PBMC (untreated 27.16%) of 43.3%. Further, the Total apoptotic cells, annexin V / propidium iodide FACS of stimulated human PBMC (untreated 34.65%) in assay [10] is 52.1%.
